Each block holds one binder with its values, some of them ahead of it.
Target: Soluble CD28-Ig (human), P10747
Experiment: two-colour FACS profile on transfected cells; score of preference for CD28-Ig over CTLA-4-Ig vs WT hB7-1

- Binding Score: 1
B1: Round 2 CD28A12-5 (ligand)
chain: ITPKSVTKRVKETVMLSCDYNTSTEELTSLRIYWRKDSKMXLAILPGKVQVWPEYKNRTITDMNDNLRIVILALRLSDSGTYTCVIQKPDLKGAYKLEHLTSVRLMIRADFPVPTINDLGNPSPNIRRLICSTSGGFPRPHLYWLENGEELNATNTTVSQDPGTELYMISSELDFNVTNNHSIVCLIKYGELLVSQIFPWSKPKQEPPIDQLPFWVIIPVSGALVLTAVVLYCLACRHVARWKRTRRNEETVGTERLSPIYLGSAQSSG
modifications: not fully specified; X: residue not identified in the source; ends and bridges not checked; also: glycosylated, sites not given here

- Binding Score: 1
B2: Round 2 CD28A4-9 (ligand)
chain: ITPKSVTKRVKETVMLSCDYNTSTEKLTSLRIYWQKDSKMVLAILPGKVQVWPEYKNRTITDMNDNPRIVILALRLSDSGTYTCVIQKPVLKGAYKLEHLTSVRLMIRADFPVPTINDLGNPSPNIRRLICSTSGGFPRPHLYWLENGEELNATNTTVSQDPETKLYMISSELDFNVTNNHSIVCLIKYGELSVSQIFPWSKPKQEPPIDQLPFWVIIPVSGALVLTAVVLYCPACRHVARWKRTRRNEETVGTERLSPIYLGSAQSRAEVPSLSX
modifications: not fully specified; X: residue not identified in the source; ends and bridges not checked

Reference: US20050154189A1
